Test results published in article PMC3602377, “Steady-State NTPase Activity of Dengue Virus NS3: Number of Catalytic Sites, Nucleotide Specificity and Activation by ssRNA”.

Molecular target: NS3h (NS3 helicase domain) (Dengue virus serotype 2 (cDNA of …, UniProt O09234 1646-2093))
Assay: fluorescence intensity titration (ex 495 nm, em 525-570 nm), 1:1 single-site fit; 1.5 mM free Mg2+; no ATP stated; constant printed as 'K' in nM, subscript lost, read as Kd
Conditions: protein: recombinant; tags: N-terminal His6 (pET-28a); label: 5'-fluorescein

B1: fluorescein-labeled 10-nt ssRNA (ssRNA)
RNA: AGUUGAGUUG
Kd: 0.75 ± 0.08 nM
